Measurements from US20150086574A1 (CELLERANT THERAPEUTICS, published 2015).
Changes are numbered by the printed parent chain.

T1: T cell Immunoglobulin- and Mucin domain-containing molecule 3 (TIM3), human, on cells (human, UniProt Q8TDQ0 22-301)
T1 construct: TIM3 as carried by human cell lines (Pfeiffer, Daudi, CMK) and by primary cells of patients; also called HAVCR2; KIM-3
T1 sequence: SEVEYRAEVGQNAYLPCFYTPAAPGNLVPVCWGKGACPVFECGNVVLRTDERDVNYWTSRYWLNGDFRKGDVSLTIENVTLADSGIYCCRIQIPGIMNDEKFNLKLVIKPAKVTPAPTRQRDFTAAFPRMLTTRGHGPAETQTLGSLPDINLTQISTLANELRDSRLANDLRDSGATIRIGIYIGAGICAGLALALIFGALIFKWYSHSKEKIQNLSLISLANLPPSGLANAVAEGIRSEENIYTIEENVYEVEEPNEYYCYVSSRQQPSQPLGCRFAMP

B1: 27.2H4 (antibody, IgG1, V domains shown)
VH: EVQLQQSGAELVRPGALVKLSCKASGFNIKHYYIHWVNQRPEQGLEWIGWIDPETGNTIYDPKFQGKASITADTSSSTAYLQLNSLTSEDTAVYCCARGWSYAMDYWGQGTSVIVSS
VL: DIVMTQSHKFMSTSVGDRVSITCKASQDVNTAVAWYQQKPGHSPKLLIYSASYHYTGVPDRFTGSGSGTDFTFTISSVQAEDLAVYYCQQHYSTPWTFGGGTKLEIK
notes: also called 27.2H4 (D2.1)
B2: 9.1G12 (antibody, V domains shown)
VH: EVMLVESGGGLVKPGGSLKLSCAASGFTFSSYAMSWVRQTPERKLEWVATISSGGTYTYYPDSVKGRFTISRDNAKNRLYLQMSGLRSEGTAMYYCVRPDYTHDDGGFAYWGQGTLVTVSA
VL: QAVVTQESALTTSPGETVTLTCRSSTGAVTTSNYANWVQEKPDHLFTGLIGGTNNRAPGVPARFSGSLIGDKAALTITGAQTEDEAIYFCALWYSNHWVFGGGTKLTVL
notes: also called 9.1G12.8
B3: 7.10F6 (antibody, IgG1, V domains shown)
VH: EVQLVESGGGLVQPGGSLKLSCAASGFIFSGYGMSWVRQTPDKRLELVAIINSNGGSVDYPDSVKGRVTISRDNAKNTLYLQMSSLKSEDTAMYYCARIYYRCMDYWGQGTSVTVSS
VL: NIMMTQSPSSLAVSAGEKVTMSCKSSQSLLYSSNQKNYLAWYQQKPGQSPKLLIYWASARESGVPDRFTGGGSGTDFTLTISSVQAEDLAVYYCHQYLSSYTFGGGTKLEIKR
notes: also called 7.10F6.1; 7.10F6.1-pure
B4: 33.1G12 (antibody, IgG1, V domains shown)
VH: EVQLQQSGPELVKPGASVKISCKASGYSFTGYLMNWVMQSHGKSLEWIGRINPYNGDIFYNQKFKDKATLTVDKSSSTAHMELRSLASEDSAVYYCARRDENFDYDNAMDYWGQGTSVTL
VL: DIVLTQSPASLAVSLGQRATISCRASESVDIYGNSFMHWYQQKPGQPPKLLIYRASNLESGIPARFRGSGSRTDFTLTIYPVEADDVATYYCQQSNEDPWTFGGGTKLEIK
notes: the printed VH ends early (…GQGTSVT)
B5: 27.12A6 (antibody, V domains shown)
VH: EVKLVESGGGLVQPGGSLNLSCAASGFTFSSYTMSWVRQTPEKRLEWVAYISSGGHSTYFPDTVKGRFTISRDNAKNTLYLQMSSLKSEDTAVYYCARGGYGNYGPYYNMDYWGQGTSVTVSS
VL: NIMMTQSPSSLAVSAGEKVTMSCKSSQSVLYSSNQKNYLAWYQQKPGQSPKLLIYWASTRESGVPDRFTGSGSGTDFTLTINNVQAEDLAVYYCHQYLSSWTFGGGTKLEIK
notes: also called 27.12A6 (D2.2)
B6: 6.16F9 (antibody, V domains shown)
VH: EVNLVESGGGLVQPGGSLKLSCAASGFTFSSYTMSWVRQSPEKRLEWVAYTSSSGASTYYPDTVKGRFTISRDNAKNTLHLQMSSLKSEDTAMYYCARGGYGNYGPYYALDYWGQGTSVTVSS
VL: B5 VL with G74E, N82S, N83S, A86T
notes: also called 6.16F9 (D2.4)
B7: 27.12E12-Biotin (antibody, V domains shown)
VH: EVQLQQSGAELVRPGALVKLSCKASGFNIKDYYMYWMKQRPEQGLEWIGWIDPENVKTIYDPKFQGRATLTADTSSNTAYLQLSSLTSEDTAVYYCTRDFGYVGFFDVWGAGTTVTVSS
VL: DIVMTQSQKFMSTSVGDRVSVNCKASQNVGTNVVWYQQKPGQSPKALIYSASYRYSGVPDRFTGSGSGTDFTLTISTVQSEDLAEYFCQQYNSYPLTFGGGTKLEIKR
notes: 27.12E12 (mouse IgG2b,k) biotinylated
B8: 27.12E12-BZAP (antibody, V domains shown)
VH: B7 VH
VL: B7 VL
notes: Biotinylated 27.12E12 (mouse IgG2b,k) conjugated to streptavidin-saporin (SAv-ZAP)
B9: 6.14B9-Biotin (antibody, V domains shown)
VH: DVQLQESGPGLVKPSQSLSLTCTVTGYSITSDYAWNWIRQFPGNKLEWMGYISYSGSISYNPSLKSRISITRDTSKNQFFLQLNSVTTEDTATYYCARSGRLRRDFDYWGQGTTLT
VL: DIQMTQSPSSLSASLGERVSLTCRASQEISGYLSWLQQKPDGTIKRLIYAASTLDSGVPKRFSGSRSGSDYSLTISSLESEDFADYYCLQYASYPLTFGAGTKLELK
notes: 6.14B9 (mouse IgG1,k) biotinylated
B10: 6.14B9-BZAP (antibody, V domains shown)
VH: B9 VH
VL: B9 VL
notes: Biotinylated 6.14B9 (mouse IgG1,k) conjugated to streptavidin-saporin (SAv-ZAP)
B11: 9.1G12.8-BZAP (antibody, V domains shown)
VH: B2 VH
VL: B2 VL
notes: Biotinylated 9.1G12 (mouse IgG2b,l) conjugated to streptavidin-saporin (SAv-ZAP); also called 9.1G12-BZAP
B12: 9.1G12.8-Biotin (antibody, V domains shown)
VH: B2 VH
VL: B2 VL
notes: 9.1G12 (mouse IgG2b,l) biotinylated
B13: 1.7E10.12-BZAP (antibody, V domains shown)
VH: EVKLLESGGGLVQPGGSLKLSCAASGFDFSRYWMSWVRQAPGKGLEWIGEINPDSSTINYTPSLKDKFIISRDNAKNTLFLQMSKVRSEDTALYYCARPSYDGYYGYAMDYWGQGTSVTVSS
VL: DIVLTQSPASLAVSLGQRATISCRASESVDSYGKSFMHWYQQKPGQPPKLLIYRASNLESGIPARFSGSGSRTDFTLTINPVEADDVATYYCQQSNEDPYTFGGGTKLEIKR
notes: Biotinylated 1.7E10 (mouse IgG1,k) conjugated to streptavidin-saporin (SAv-ZAP)
B14: 1.7E10.12-Biotin (antibody, V domains shown)
VH: B13 VH
VL: B13 VL
notes: 1.7E10 (mouse IgG1,k) biotinylated with the EZ-link Sulfo NHS-LC-Biotinylated kit
B15: 1.7E10 (antibody, V domains shown)
VH: B13 VH
VL: B13 VL

Biological target: T cell Immunoglobulin- and Mucin domain-containing molecule 3 (TIM3), human, on cells (human) (UniProt Q8TDQ0)
Test: flow cytometry; cells not named in the table (Example 5 uses Pfeiffer cells)

Q: With Mouse IgG1k-BZAP (antibody) as the molecule, how does the % Positive for TIM3 read?
A: 0.501%

Q: What about the GeoMean (Intensity of TIM3 binding) of the same molecule?
A: 5.33

Q: Mouse IgG2ak-Biotin (antibody) was tested. Which % Positive for TIM3 did it give?
A: 0.49%

Q: What about the GeoMean (Intensity of TIM3 binding) of the same molecule?
A: 5.83

Q: What does the source list for Mouse IgG1k-Biotin (antibody)?
A: % Positive for TIM3: 0.192%; GeoMean (Intensity of TIM3 binding): 5.06

Q: What does the source list for IgG2bk-BZAP (antibody)?
A: % Positive for TIM3: 0.195%; GeoMean (Intensity of TIM3 binding): 6.48

Biological target: T1, T cell Immunoglobulin- and Mucin …
Test: cell binding (flow cytometry), Pfeiffer cells

Q: With B1 as the molecule, how does the “percentage of cell binding” value read?
A: 75%

Q: How did the “percentage of cell binding” value turn out when B2 was run?
A: 14%

Q: For B3, which “percentage of cell binding” value is on record?
A: 92%

Biological target: T1, T cell Immunoglobulin- and Mucin …
Test: flow cytometry, PBMCs of AML patient 3, CD34+CD38- population

Q: How did the percent binding turn out when B1 was run?
A: 0.69%

Q: How did the percent binding turn out when B2 was run?
A: 0.23%

Q: For B3, which percent binding is on record?
A: 0.6%

Biological target: T1, T cell Immunoglobulin- and Mucin …
Test: flow cytometry, PBMCs of AML patient 3, Blast population

Q: For B1, which percent binding is on record?
A: 1.07%

Q: How did the percent binding turn out when B2 was run?
A: 0.67%

Q: With B3 as the molecule, how does the percent binding read?
A: 1.33%

Biological target: T1, T cell Immunoglobulin- and Mucin …
Test: flow cytometry, TIM3 expressing cell lines

Q: Does B4 bind?
A: binds

Q: Does B5 bind?
A: binds

Q: Does B6 bind?
A: binds

Biological target: T1, T cell Immunoglobulin- and Mucin …
Test: flow cytometry; cells not named in the table (Example 5 uses Pfeiffer cells)

Q: For B7, which “% Positive for TIM3” value is on record?
A: 96.8%

Q: And the “GeoMean (Intensity of TIM3 binding)” value?
A: 202

Q: What does the source list for B8?
A: % Positive for TIM3: 98.8%; GeoMean (Intensity of TIM3 binding): 268

Q: Which results are given for B9?
A: % Positive for TIM3: 48.2%; GeoMean (Intensity of TIM3 binding): 20.4

Q: Which “% Positive for TIM3” value does the source give for B10 here?
A: 43.9%

Q: And the “GeoMean (Intensity of TIM3 binding)” value?
A: 22.5

Q: With B11 as the molecule, how does the “% Positive for TIM3” value read?
A: 97.4%

Q: And the “GeoMean (Intensity of TIM3 binding)” value?
A: 168

Q: Which “% Positive for TIM3” value does the source give for B12 here?
A: 55.4%

Q: And the “GeoMean (Intensity of TIM3 binding)” value?
A: 23.1

Q: With B3 as the molecule, how does the “% Positive for TIM3” value read?
A: 93.3%

Q: What about the “GeoMean (Intensity of TIM3 binding)” value of the same molecule?
A: 142

Q: How did the “% Positive for TIM3” value turn out when B13 was run?
A: 99.3%

Q: And the “GeoMean (Intensity of TIM3 binding)” value?
A: 436

Q: With B14 as the molecule, how does the “% Positive for TIM3” value read?
A: 99.2%

Q: What about the “GeoMean (Intensity of TIM3 binding)” value of the same molecule?
A: 354

Biological target: T1, T cell Immunoglobulin- and Mucin …
Test: cell-based or functional assay

Q: B2 was tested. Which “IL-6 release from activated CD4+ T cells (ELISA), antibody at 5 ug/ml” value did it give?
A: > 2 fold reduction

Q: Which “IFN-gamma release from activated CD4+ T cells (ELISA), antibody at 5 ug/ml” value does the source give for B3 here?
A: > 2 fold reduction

Q: Which “IFN-gamma release from activated CD4+ T cells (ELISA), antibody at 5 ug/ml” value does the source give for B15 here?
A: > 2 fold reduction
